# Results: the Human Domainome abundance scans (Beltran et al. 2025)
# ± gives the uncertainty stated by the source.
# B1: SWI/SNF complex subunit SMARCC2, residues 599 to 641; numbered along this chain, Q8TAQ2 (parent)
# chain: REWTEQETLLLLEALEMYKDDWNKVSEHVGSRTQDECILHFLR
# Variants of: B1
# Test: abundance fitness (aPCA) (normalised: wild type 0, dead -1); higher = more abundant; growth selection in yeast, the domain comes from the species named
# Conditions: Homo sapiens
row,Variant,abundance fitness
1,REWTEQETLLLLEALEMYKDDWNPVSEHVGSRTQDECILHFLR [K24P],-0.524 ± 0.092
2,REWTEQETLLLLEALEMYKDDWNWVSEHVGSRTQDECILHFLR [K24W],-0.351 ± 0.072
3,REWTEQETLLLLEALEMYKDDWNRVSEHVGSRTQDECILHFLR [K24R],0.064 ± 0.066
4,REWTEQETLLLLEALEMYKDDWNFVSEHVGSRTQDECILHFLR [K24F],0.058 ± 0.13
5,REWTEQETLLLLEALEMYKDDWNMVSEHVGSRTQDECILHFLR [K24M],0.259 ± 0.1
6,REWTEQETLLLLEALEMYKDDWNQVSEHVGSRTQDECILHFLR [K24Q],0.046 ± 0.086
7,REWTEQETLLLLEALEMYKDDWNLVSEHVGSRTQDECILHFLR [K24L],0.054 ± 0.065
8,REWTEQETLLLLEALEMYKDDWNKRSEHVGSRTQDECILHFLR [V25R],-0.331 ± 0.07
9,REWTEQETLLLLEALEMYKDDWNKGSEHVGSRTQDECILHFLR [V25G],-0.755 ± 0.11
10,REWTEQETLLLLEALEMYKDDWNKSSEHVGSRTQDECILHFLR [V25S],-0.528 ± 0.11
11,REWTEQETLLLLEALEMYKDDWNKPSEHVGSRTQDECILHFLR [V25P],-0.823 ± 0.22
12,REWTEQETLLLLEALEMYKDDWNKHSEHVGSRTQDECILHFLR [V25H],-0.578 ± 0.2
13,REWTEQETLLLLEALEMYKDDWNKDSEHVGSRTQDECILHFLR [V25D],-0.478 ± 0.44
14,REWTEQETLLLLEALEMYKDDWNKWSEHVGSRTQDECILHFLR [V25W],-0.522 ± 0.12
15,REWTEQETLLLLEALEMYKDDWNKCSEHVGSRTQDECILHFLR [V25C],0.316 ± 0.12
16,REWTEQETLLLLEALEMYKDDWNKQSEHVGSRTQDECILHFLR [V25Q],-0.853 ± 0.24
17,REWTEQETLLLLEALEMYKDDWNKMSEHVGSRTQDECILHFLR [V25M],0.026 ± 0.07
18,REWTEQETLLLLEALEMYKDDWNKNSEHVGSRTQDECILHFLR [V25N],-0.275 ± 0.17
19,REWTEQETLLLLEALEMYKDDWNKISEHVGSRTQDECILHFLR [V25I],0.235 ± 0.36
20,REWTEQETLLLLEALEMYKDDWNKFSEHVGSRTQDECILHFLR [V25F],-0.349 ± 0.17

row,Variant,abundance fitness
1,REWTEQETLLLLEALEMYKDDWNKYSEHVGSRTQDECILHFLR [V25Y],-0.798 ± 0.42
2,REWTEQETLLLLEALEMYKLDWNKVSEHVGSRTQDECILHFLR [D20L],-0.448 ± 0.075
3,REWTEQETLLLLEALEMYKGDWNKVSEHVGSRTQDECILHFLR [D20G],0.005 ± 0.064
4,REWTEQETLLLLEALEMYKNDWNKVSEHVGSRTQDECILHFLR [D20N],-0.031 ± 0.13
5,REWTEQETLLLLEALEMYKQDWNKVSEHVGSRTQDECILHFLR [D20Q],0.244 ± 0.062
6,REWTEQETLLLLEALEMYKFDWNKVSEHVGSRTQDECILHFLR [D20F],-0.357 ± 0.12
7,REWTEQETLLLLEALEMYKTDWNKVSEHVGSRTQDECILHFLR [D20T],-0.412 ± 0.12
8,REWTEQETLLLLEALEMYKIDWNKVSEHVGSRTQDECILHFLR [D20I],-0.777 ± 0.4
9,REWTEQETLLLLEALEMYKKDWNKVSEHVGSRTQDECILHFLR [D20K],0.054 ± 0.11
10,REWTEQETLLLLEALEMYKPDWNKVSEHVGSRTQDECILHFLR [D20P],0.055 ± 0.088
11,REWTEQETLLLLEALEMYKMDWNKVSEHVGSRTQDECILHFLR [D20M],-0.361 ± 0.36
12,REWTEQETLLLLEALEMYKYDWNKVSEHVGSRTQDECILHFLR [D20Y],-0.072 ± 0.3
13,REWTEQETLLLLEALEMYKWDWNKVSEHVGSRTQDECILHFLR [D20W],-0.237 ± 0.076
14,REWTEQETLLLLEALEMYKADWNKVSEHVGSRTQDECILHFLR [D20A],-0.181 ± 0.071
15,REWTEQETLLLLEALEMYKCDWNKVSEHVGSRTQDECILHFLR [D20C],-0.15 ± 0.078
16,REWTEQETLLLLEALEMYKSDWNKVSEHVGSRTQDECILHFLR [D20S],0.027 ± 0.088
17,REWTEQETLLLLEALEMYKRDWNKVSEHVGSRTQDECILHFLR [D20R],0.289 ± 0.061
18,REWTEQETLLLLEALEMYKDDWNKVKEHVGSRTQDECILHFLR [S26K],0.211 ± 0.089
19,REWTEQETLLLLEALEMYKDDWNKVNEHVGSRTQDECILHFLR [S26N],-0.62 ± 0.12
20,REWTEQETLLLLEALEMYKDDWNKVIEHVGSRTQDECILHFLR [S26I],-0.449 ± 0.16

row,Variant,abundance fitness
1,REWTEQETLLLLEALEMYKDDWNKVHEHVGSRTQDECILHFLR [S26H],0.095 ± 0.065
2,REWTEQETLLLLEALEMYKDDWNKVAEHVGSRTQDECILHFLR [S26A],0.303 ± 0.087
3,REWTEQETLLLLEALEMYKDDWNKVCEHVGSRTQDECILHFLR [S26C],-0.07 ± 0.088
4,REWTEQETLLLLEALEMYKDDWNKVEEHVGSRTQDECILHFLR [S26E],0.081 ± 0.12
5,REWTEQETLLLLEALEMYKDDWNKVQEHVGSRTQDECILHFLR [S26Q],-0.449 ± 0.15
6,REWTEQETLLLLEALEMYKDDWNKVFEHVGSRTQDECILHFLR [S26F],-0.709 ± 0.12
7,REWTEQETLLLLEALEMYKDDWNKVLEHVGSRTQDECILHFLR [S26L],-0.27 ± 0.087
8,REWTEQETLLLLEALEMYKDDWNKVPEHVGSRTQDECILHFLR [S26P],-0.444 ± 0.12
9,REWTEQETLLLLEALEMYKDDWNKVMEHVGSRTQDECILHFLR [S26M],0.199 ± 0.14
10,REWTEQETLLLLEALEMYKDDWNKVGEHVGSRTQDECILHFLR [S26G],0.084 ± 0.069
11,REWTEQETLLLLEALEMYTDDWNKVSEHVGSRTQDECILHFLR [K19T],-0.003 ± 0.083
12,REWTEQETLLLLEALEMYRDDWNKVSEHVGSRTQDECILHFLR [K19R],-0.115 ± 0.069
13,REWTEQETLLLLEALEMYVDDWNKVSEHVGSRTQDECILHFLR [K19V],-0.256 ± 0.058
14,REWTEQETLLLLEALEMYWDDWNKVSEHVGSRTQDECILHFLR [K19W],-0.526 ± 0.11
15,REWTEQETLLLLEALEMYNDDWNKVSEHVGSRTQDECILHFLR [K19N],0.29 ± 0.14
16,REWTEQETLLLLEALEMYMDDWNKVSEHVGSRTQDECILHFLR [K19M],-0.332 ± 0.38
17,REWTEQETLLLLEALEMYYDDWNKVSEHVGSRTQDECILHFLR [K19Y],-0.427 ± 0.15
18,REWTEQETLLLLEALEMYPDDWNKVSEHVGSRTQDECILHFLR [K19P],-0.052 ± 0.074
19,REWTEQETLLLLEALEMYSDDWNKVSEHVGSRTQDECILHFLR [K19S],-0.287 ± 0.065
